The text below walks through data of US20090317414A1, “CANCER VACCINE COMPRISING A MUCIN 1 (MUC1) T CELL EPITOPE-DERIVED PEPTIDE” (4G VACCINES PTY LTD, priority 2006, published 2009).

Experiment [1] deals with T1, soluble H-2K^b (soluble extracellular domains; heavy chain residues 1-274 with C-terminal His-tag and β2-microglobulin residues 1-99) (mouse).
T1 chain: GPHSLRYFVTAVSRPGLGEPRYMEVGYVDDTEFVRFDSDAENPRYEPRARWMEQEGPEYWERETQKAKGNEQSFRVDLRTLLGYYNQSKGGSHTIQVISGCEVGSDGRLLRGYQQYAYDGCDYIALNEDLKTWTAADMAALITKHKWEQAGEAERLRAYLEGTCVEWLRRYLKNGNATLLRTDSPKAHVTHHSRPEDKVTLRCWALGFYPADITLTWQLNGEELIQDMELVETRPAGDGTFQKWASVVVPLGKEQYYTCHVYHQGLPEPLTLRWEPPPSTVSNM
The experiment in a line: inhibition assay with soluble H-2K^b, 23° C.

In experiment [2] the target is T1, soluble H-2K^b (soluble extracellular …). Briefly: inhibition assay with soluble H-2K^b, 4° C.
For experiment [3] the target is unchanged. Briefly: inhibition assay with soluble H-2K^b, 37° C.

For orientation: Kd means the free concentration of one partner at which half of the binding sites on the other are occupied at equilibrium, for simple one-to-one binding. Low readings indicate tighter binding, high ones weaker binding. As for RGYVYQGL (modifications not checked) [VSV8 (RGYVYQGL), Vesicular stomatitis virus NP52-59], the values for the Kd in experiment [1], in experiment [2] and in experiment [3] were 27 nM, 34 nM and 163 nM, respectively.
